The numbers were not newly measured in PMC7550760, which cites them from elsewhere.

What is called pKa is the pH at which an ionisable group is half protonated.

The data set concerns the target His84 (UniProt position 104, ACRVNHVTLSQ). Particulars: monomeric native-like protein implied; not stated.

For “beta2-microglobulin (wild type, full length) (Homo sapiens)”, the pKa is given as 4.1.
Regarding “beta2-microglobulin deltaN6 variant (Homo sapiens; del1-6)”, the pKa was 5.9.
